Measured values published in US7479478B2, “Human parathyroid hormone modifications, preparation and use” (The General Hospital Corporation, priority 1998, dated 2009).
No end group written: not given here.

Experiments:
Format in all cases: cell-based
human PTH-1 receptors [1] = molecular target: T1, human PTH-1 receptors (Homo sapiens, UniProt Q03431); experiment: PLC activation in COS-7 cells expressing human PTH-1 receptors; settings: up to 1000 nM
T1 construct: expressed in transfected cells
T1 sequence (Q03431 27-593): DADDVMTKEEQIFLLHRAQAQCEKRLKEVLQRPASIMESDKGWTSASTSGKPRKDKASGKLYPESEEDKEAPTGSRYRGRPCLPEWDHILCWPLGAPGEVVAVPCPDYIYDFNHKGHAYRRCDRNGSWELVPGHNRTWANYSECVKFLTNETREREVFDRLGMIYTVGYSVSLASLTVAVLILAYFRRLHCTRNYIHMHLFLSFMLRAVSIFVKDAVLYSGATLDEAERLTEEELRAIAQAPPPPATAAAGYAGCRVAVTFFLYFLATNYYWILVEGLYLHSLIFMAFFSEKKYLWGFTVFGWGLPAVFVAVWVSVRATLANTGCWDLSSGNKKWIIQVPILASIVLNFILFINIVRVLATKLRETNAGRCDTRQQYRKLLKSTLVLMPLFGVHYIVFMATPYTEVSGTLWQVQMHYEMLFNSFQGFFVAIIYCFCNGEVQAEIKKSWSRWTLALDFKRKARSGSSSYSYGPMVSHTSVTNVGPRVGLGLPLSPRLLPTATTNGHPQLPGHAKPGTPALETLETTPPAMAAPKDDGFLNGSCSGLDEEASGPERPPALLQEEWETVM
Protocol: (§1) HKRK B7 or EW5 cells (32), subclones of LLC-PKI renal epithelial cells that stably express human or rat PTH-1 receptors (950,000 and 320,000 receptors/cell, respectively), were maintained under 5% CO2 in air in Dulbecco's modified essential medium containing 7% fetal bovine serum (FBS) and 1% penicillin/streptomycin (GIBCO-BRL, Grand Island, N.Y.). HEK-293 and COS-7 cells were cultured similarly, except that 10% FBS was used in the medium. Cells were seeded into 24-well plates two days before assay at a density of 2-2.5×10^5 cells/well (HKRK B7 or EW 5 cells) or 6×10^5 cells/well (in 6-well plates) (HEK-293 cells). In experiments involving HEK-293 cells, DNA transfections were performed 24 hr after plating and inositol radiolabel was added 24 hr thereafter (see below). COS-7 cell transfections were performed as previously described (Gardella, T. J., et al., Endocrinology 132(5):2024-2030 (1993))
(§2) PLC was activated by PTH agonists in the presence of 30 mM LiCl at 37° C. for 30 min after 16 hr of labeling with [^3H]myo-inositol (3 uCi/ml) in serum-free medium containing 0.1% bovine serum albumin. The reactions were stopped by rapid aspiration and addition of cold 5% TCA. Water-soluble radiolabeled inositol trisphosphate (IP3) was isolated after ether extraction by ion-exchange chromatography (Guo, J., et al., Endocrinology 136(9):3884-3891 (1995)). […]

rat PTH-1 receptors = molecular target: T2, rat PTH-1 receptors (Rattus norvegicus, UniProt P25961); experiment: PLC activation in COS-7 cells expressing rat PTH-1 receptors; settings: up to 1000 nM
T2 construct: expressed in transfected cells
T2 sequence (P25961 27-591): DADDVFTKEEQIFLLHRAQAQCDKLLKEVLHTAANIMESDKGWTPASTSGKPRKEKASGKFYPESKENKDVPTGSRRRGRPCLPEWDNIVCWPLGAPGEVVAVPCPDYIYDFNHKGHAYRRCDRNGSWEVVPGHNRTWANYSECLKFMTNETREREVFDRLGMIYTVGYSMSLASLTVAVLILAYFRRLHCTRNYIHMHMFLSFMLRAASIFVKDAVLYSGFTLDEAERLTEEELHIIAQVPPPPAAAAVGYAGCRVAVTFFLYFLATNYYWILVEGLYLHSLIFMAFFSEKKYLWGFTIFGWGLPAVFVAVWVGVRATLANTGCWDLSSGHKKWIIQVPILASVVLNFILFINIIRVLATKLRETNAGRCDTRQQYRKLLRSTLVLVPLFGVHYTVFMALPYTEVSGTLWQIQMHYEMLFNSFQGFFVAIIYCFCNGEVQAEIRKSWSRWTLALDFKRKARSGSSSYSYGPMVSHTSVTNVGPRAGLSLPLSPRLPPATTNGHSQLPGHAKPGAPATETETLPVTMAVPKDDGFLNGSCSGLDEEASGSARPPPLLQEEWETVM
Protocol: as §1, §2

human PTH-1 receptors [2] = molecular target: T1, human PTH-1 receptors; experiment: PLC activation (IP3 formation) in HKRK B7 cells; settings: HKRK B7 cells; up to 1000 nM or 10 μM
Protocol: as §1
PLC was activated by PTH agonists in the presence of 30 mM LiCl at 37° C. for 30 min after 16 hr of labeling with [^3H]myo-inositol (3 uCi/ml) in serum-free medium containing 0.1% bovine serum albumin. The reactions were stopped by rapid aspiration and addition of cold 5% TCA. Water-soluble radiolabeled inositol trisphosphate (IP3) was isolated after ether extraction by ion-exchange chromatography (Guo, J., et al., Endocrinology 136(9):3884-3891 (1995)). In experiments involving HEK 293 cells, cells previously transfected with human PTHR cDNA (in the pcDNA1 expression vector HKRK) using Lipofectamine (Gibco BRL) were labeled with [^3H]myo-inositol and assayed as described above, except that total water-soluble [^3H]inositol polyphosphates were collected as a single fraction from the ion-exchange columns.

Human PTH-(3-34): N-truncated human PTH peptide lacking Ser^1-Val^2 (SEIQLMHNLGKHLNSMERVEWLRKKLQDVHNF-NH2; UniProt P01270 34-65, looked up, fragment)
did not activate PLC: PLC activation, result in words (human PTH-1 receptors [1]) | PLC activation, result in words (rat PTH-1 receptors) | PLC activation (IP3 formation), result in words (human PTH-1 receptors [2])
